Experiments:
Assay in all cases: pull-down binding Z-score (relative to library population); higher = stronger binding
[1] = test system: G-clamp-N3 (biotin conjugate); details: RNA library: Library-1 (pre-miRNA loops + repeats)
In short: (§1)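 Streptavidin beads with 100 pmol of biotin-conjugated small molecule were incubated for 60 min at 25 °C with 1 μg of heat-folded Cy5- or Cy3-end-labelled RNA library in phosphate/NaCl/KCl buffer. Bound RNA was eluted in hot SDS after three washes and hybridised to a DNA barcode microarray at 55.5 °C for 20 h. Each binding score is a library-referenced Z-score, computed after beads-only subtraction and a trimmed mean of barcoded replicate probes.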

TO-N3 (biotin conjugate) = details: RNA library: Library-2
In short: as §1

[2] = test system: TO-3-N3 (biotin conjugate); details: RNA library: Library-2
In short: as §1

[3] = test system: TO-N3-2 (biotin conjugate); details: RNA library: Library-2
In short: as §1

[4] = test system: TO-3-N3-2 (biotin conjugate); details: RNA library: Library-2
In short: as §1

Sequence	pull-down binding Z-score [1]	pull-down binding Z-score (TO-N3 (biotin conjugate))	pull-down binding Z-score [2]	pull-down binding Z-score [3]	pull-down binding Z-score [4]
GGGGCCCUACUUUAAGGGCCCU [hsa-mir-8087]	1.03	0.868	0.997	-0.706	0.194
GGGGCCUGUGGUCCC [hsa-mir-1268a]	0.885	-0.282	-0.0124	-0.675	-0.144
GGGGCUCUU [hsa-mir-4634]	-0.697	0.365	0.0873	0.21	0.0655
GGGGCUGAGGCUGAGUCUUCCUCCC [hsa-mir-6756]	0.713	0.806	0.154	1.53	0.101
GGGGCUGGCUGGGUCUGGUAGUGGGCAUCAGCUGGCCCU [hsa-mir-1207]	2	2.6	2.53	1.22	1.51
GGGGCUGGUUGUCUA [hsa-mir-6080]	0.388	0.377	0.297	0.516	-0.165
GGGGGCAGGCAGGGGAUUGGCUAAGAACCUGACUCUUGC [hsa-mir-7703]	-0.0197	2.48	2.18	1.75	1.44
GGGGGCAGGCUGCCACCUCCUG [hsa-mir-8089]	-0.161	1.89	1.5	1.36	0.599
GGGGGUGGCCGGGGCUGACCCU [hsa-mir-939]	0.0126	2.56	2.48	2.08	1.8
GGGGUAGAAGCCACCCG [hsa-mir-4466]	0.458	0.492	0.149	1.46	0.0166
GGGGUCUUGCUCUAUU [hsa-mir-6088]	0.123	0.572	0.523	0.111	0.136
GGGGUGGCUGCGGGCCUUCUGAAGGUCUCCC [hsa-mir-662]	0.76	0.946	0.427	1.24	0.448
GGGGUUUUUGCCUCCAACUGACUCC [hsa-mir-155]	-0.504	-0.292	-0.366	-0.135	-0.283
GGGUCAGGUCUGCAGCCUUGUAUCUGCUGAUCC [hsa-mir-6881]	-0.0593	-0.234	-0.183	-0.107	-0.227
GGGUCAGUGGCAGAGCCAGGCAGAUGCUGACCC [hsa-mir-6832]	2.93	0.45	0.349	0.72	0.267
GGGUCCUAAGGUGUGUCCUC [hsa-mir-1976]	-0.979	0.25	-0.224	0.812	-0.0978
GGGUCGUGGGAAAGUGUUGACCC [hsa-mir-4655]	1.79	0.5	0.166	0.588	0.276
GGGUGAGAGUGCUUUCUGAAUGCAGUGCACCC [hsa-mir-500b]	0.8	0.52	0.297	0.985	0.131
